US11572394B2, “Peptides for targeting LRP6-overexpressed cells” (PASTEUR INSTITUTE OF IRAN, priority 2020, dated 2023)

What was measured:
Type in all cases: cell-based, human
[1] = tested on: Wnt signaling pathway, HUVEC cell line; assay: Western blotting of LRP6 and β-catenin proteins with signal densitometry; details: Western blot
Protocol: (§1) In this example, the effect of exemplary peptides on the expression of LRP6 and downstream genes of the Wnt signaling pathway, such as β-catenin, cyclin D1, and C-MYC, was evaluated at transcription level using real-time PCR and at translation level using Western blotting. The Gapdh gene was used as the reference gene. The expression fold change of more than 2 times (treated cell against untreated cell) was defined as increasing expression, and cases with a fold change of 0.5 to 2 were unchanged, and cases with expression fold change less than 0.5 were considered as a reduction in expression.
Also, the effect of exemplary peptides on the levels of LRP6 and β-catenin proteins in the β-catenin/Wnt signaling pathway was investigated by Western blotting. Also, each protein's relative expression was determined through signal densitometry of each Western blot band. FIG. 11A illustrates relative expression β-actin, β-catenin, and LRP6 in SW480, HCT116, and HUVEC cell lines, consistent with one or more exemplary embodiments of the present disclosure. Referring to FIG. 11A, the relative expressions of β-catenin and LRP6 in SW480 and HCT116 were higher than HUVEC as a normal cell.

[2] = tested on: Wnt signaling pathway, HCT116 cell line; assay: as above; details: HCT116, Western blot
Protocol: as §1
(§2) Also, the effect of exemplary peptides on the levels of LRP6 and β-catenin proteins in the β-catenin/Wnt signaling pathway was investigated by Western blotting. Also, each protein's relative expression was determined through signal densitometry of each Western blot band.

[3] = tested on: Wnt signaling pathway, SW480 cell line; assay: as above; details: SW480, Western blot
Protocol: as §1, §2

HCT116 = assay: Cell cycle analysis by flow cytometry (DNA content); details: HCT116, 24 hours
Protocol: (§3) In this example, the effect of exemplary peptides on the cell cycle was determined through flow cytometry and measurement of DNA content in cells. In this experiment, HCT116, SW480, and HUVEC cell lines were cultured in 24-well plates and treated with 1 mM of each exemplary peptide for 24 hours.
(§4) The cell proliferation index may be calculated by dividing the percentage of cells present in the S and G2 stages by the percentage of cells in the G1, S, and G2 stages. […] Also, the proliferation index in SW480 and HCT116 cell lines decreased after treatment with exemplary peptides (SEQ ID NOs: 1-4). On the other hand, the decrease in the proliferation index of HUVEC cells was smaller than that of SW480 and HCT116 cell lines.

SW480 = assay: as above; details: SW480, 24 hours
Protocol: as §3, §4

HUVEC = assay: as above; details: 24 hours
Protocol: as §3, §4

B1: DKK1: Dickkopf-related protein 1, natural inhibitor of the Wnt signaling pathway, antagonist ligand of LRP6, negative control (protein)
chain: TLNSVLNSNAIKNLPPPLGGAAGHPGSAVSAAPGILYPGGNKYQTIDNYQPYPCAEDEECGTDEYCASPTRGGDAGVQICLACRKRRKRCMRHAMCCPGNYCKNGICVSSDQNHFRGEIEETITESFGNDHSTLDGYSRRTTLSSKMYHTKGQEGSVCLRSSDCASGLCCARHFWSKICKPVLKEGQVCTKHRRKGSHGLEIFQRCYCGEGLSCRIQKDHHQASNSSRLHTCQRH
level of LRP6 protein [1]: did not alter
level of LRP6 protein [2]: did not alter
level of LRP6 protein [3]: did not alter
S and G2/M stage percentage (HCT116): decreased
percentage of cells in the G0/G1 stage (HCT116): increased
S and G2/M stage percentage (SW480): decreased
percentage of cells in the G0/G1 stage (SW480): increased
S and G2/M stage percentage (HUVEC): decreased
percentage of cells in the G0/G1 stage (HUVEC): increased
